In the supplement of paper PMC9112550, “Optimization of the antimicrobial peptide Bac7 by deep mutational scanning” (BMC Biology, 2022):

Tested on: Escherichia coli TOP10
Assay: shrunken log2 fold change of peptide-encoding DNA abundance (4.5 h post-induction vs induction); higher = less antimicrobial activity (less host growth inhibition)
Details: time post-induction: 4.5 h; library: site-saturation at positions 5, 18, 19, 20
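Also: peptides expressed intracellularly from a pBAD plasmid library in pooled LB shake-flask culture, induced with 0.3% L-arabinose, DNA abundance read by NGS, three biological replicates, DESeq2 with apeglm shrinkage.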

| Sequence | shrunken log2 fold change |
| --- | --- |
| RRIRPRPPRLPRPRPRPKCIPRP | -1.04 |
| RRIRPRPPRLPRPRPRPKDSPRP | -0.157 |
| RRIRPRPPRLPRPRPRPKEPPRP | 0.133 |
| RRIRPRPPRLPRPRPRPKERPRP | 0.128 |
| RRIRPRPPRLPRPRPRPKFGPRP | -0.0973 |
| RRIRPRPPRLPRPRPRPKFVPRP | -0.0877 |
| RRIRPRPPRLPRPRPRPKGDPRP | 0.022 |
| RRIRPRPPRLPRPRPRPKGPPRP | 0.641 |
| RRIRPRPPRLPRPRPRPKMWPRP | 0.299 |
| RRIRPRPPRLPRPRPRPKNDPRP | -0.108 |
| RRIRPRPPRLPRPRPRPKNFPRP | -0.262 |
| RRIRPRPPRLPRPRPRPKPCPRP | -0.044 |
| RRIRPRPPRLPRPRPRPKQPPRP | 0.0475 |
| RRIRPRPPRLPRPRPRPKQYPRP | -0.29 |
| RRIRPRPPRLPRPRPRPKVAPRP | 0.02 |
| RRIRPRPPRLPRPRPRPKVIPRP | -0.172 |
| RRIRPRPPRLPRPRPRPKYMPRP | 1.72 |
| RRIRPRPPRLPRPRPRPLELPRP | 0.0125 |
| RRIRPRPPRLPRPRPRPLGDPRP | 0.279 |
| RRIRPRPPRLPRPRPRPLGMPRP | -0.0753 |
| RRIRPRPPRLPRPRPRPLGTPRP | 0.125 |
| RRIRPRPPRLPRPRPRPLHQPRP | -0.0461 |
| RRIRPRPPRLPRPRPRPLIIPRP | -0.605 |
| RRIRPRPPRLPRPRPRPLKVPRP | -0.107 |
| RRIRPRPPRLPRPRPRPLLIPRP | -0.758 |

| Sequence | shrunken log2 fold change |
| --- | --- |
| RRIRPRPPRLPRPRPRPLLKPRP | 0.593 |
| RRIRPRPPRLPRPRPRPLLYPRP | -0.348 |
| RRIRPRPPRLPRPRPRPLMTPRP | -0.0836 |
| RRIRPRPPRLPRPRPRPLNHPRP | -0.363 |
| RRIRPRPPRLPRPRPRPLNIPRP | -0.809 |
| RRIRPRPPRLPRPRPRPLPEPRP | 0.935 |
| RRIRPRPPRLPRPRPRPLQDPRP | 0.151 |
| RRIRPRPPRLPRPRPRPLRDPRP | 0.522 |
| RRIRPRPPRLPRPRPRPLRHPRP | 0.21 |
| RRIRPRPPRLPRPRPRPLRNPRP | 0.673 |
| RRIRPRPPRLPRPRPRPLSDPRP | -0.0446 |
| RRIRPRPPRLPRPRPRPLTLPRP | 0.121 |
| RRIRPRPPRLPRPRPRPLTYPRP | -0.0089 |
| RRIRPRPPRLPRPRPRPLVIPRP | -0.509 |
| RRIRPRPPRLPRPRPRPMCGPRP | -0.252 |
| RRIRPRPPRLPRPRPRPMDVPRP | -0.0123 |
| RRIRPRPPRLPRPRPRPMEEPRP | -0.0433 |
| RRIRPRPPRLPRPRPRPMFCPRP | -0.332 |
| RRIRPRPPRLPRPRPRPMGCPRP | -0.0927 |
| RRIRPRPPRLPRPRPRPMGEPRP | -0.231 |
| RRIRPRPPRLPRPRPRPMGIPRP | 0.21 |
| RRIRPRPPRLPRPRPRPMIKPRP | -0.696 |
| RRIRPRPPRLPRPRPRPMILPRP | -0.064 |
| RRIRPRPPRLPRPRPRPMIPPRP | -0.124 |
| RRIRPRPPRLPRPRPRPMKIPRP | 0.0483 |

| Sequence | shrunken log2 fold change |
| --- | --- |
| RRIRPRPPRLPRPRPRPMKWPRP | 0.291 |
| RRIRPRPPRLPRPRPRPMMKPRP | -0.173 |
| RRIRPRPPRLPRPRPRPMPEPRP | -0.0242 |
| RRIRPRPPRLPRPRPRPMPGPRP | -0.0627 |
| RRIRPRPPRLPRPRPRPMPHPRP | -0.169 |
| RRIRPRPPRLPRPRPRPMPNPRP | 0.156 |
| RRIRPRPPRLPRPRPRPMRCPRP | 0.221 |
| RRIRPRPPRLPRPRPRPMRIPRP | 0.189 |
| RRIRPRPPRLPRPRPRPMSGPRP | 0.115 |
| RRIRPRPPRLPRPRPRPMSLPRP | -0.769 |
| RRIRPRPPRLPRPRPRPMTLPRP | -0.189 |
| RRIRPRPPRLPRPRPRPMVAPRP | 0.208 |
| RRIRPRPPRLPRPRPRPMVQPRP | 0.0526 |
| RRIRPRPPRLPRPRPRPMVWPRP | 0.212 |
| RRIRPRPPRLPRPRPRPMVYPRP | -0.228 |
| RRIRPRPPRLPRPRPRPMWDPRP | -0.0234 |
| RRIRPRPPRLPRPRPRPMWFPRP | -0.113 |
| RRIRPRPPRLPRPRPRPMYFPRP | -0.0431 |
| RRIRPRPPRLPRPRPRPMYMPRP | -0.0346 |
| RRIRPRPPRLPRPRPRPNALPRP | 0.0933 |
| RRIRPRPPRLPRPRPRPNEPPRP | 0.146 |
| RRIRPRPPRLPRPRPRPNHPPRP | -0.404 |
| RRIRPRPPRLPRPRPRPNIKPRP | -0.322 |
| RRIRPRPPRLPRPRPRPNKPPRP | -0.00463 |
| RRIRPRPPRLPRPRPRPNKSPRP | 0.408 |

| Sequence | shrunken log2 fold change |
| --- | --- |
| RRIRPRPPRLPRPRPRPNNGPRP | -0.335 |
| RRIRPRPPRLPRPRPRPNNIPRP | -0.848 |
| RRIRPRPPRLPRPRPRPNNLPRP | -0.181 |
| RRIRPRPPRLPRPRPRPNPHPRP | 0.0866 |
| RRIRPRPPRLPRPRPRPNPPPRP | 0.188 |
| RRIRPRPPRLPRPRPRPNPQPRP | -0.0414 |
| RRIRPRPPRLPRPRPRPNQHPRP | -0.43 |
| RRIRPRPPRLPRPRPRPNRGPRP | 0.0424 |
| RRIRPRPPRLPRPRPRPNRNPRP | -0.352 |
| RRIRPRPPRLPRPRPRPNRRPRP | -0.0942 |
| RRIRPRPPRLPRPRPRPNSKPRP | -0.557 |
| RRIRPRPPRLPRPRPRPNTHPRP | -0.00792 |
| RRIRPRPPRLPRPRPRPNTLPRP | -0.468 |
| RRIRPRPPRLPRPRPRPNTTPRP | -0.131 |
| RRIRPRPPRLPRPRPRPNVIPRP | -0.451 |
| RRIRPRPPRLPRPRPRPNVWPRP | 0.183 |
| RRIRPRPPRLPRPRPRPNYKPRP | -0.537 |
| RRIRPRPPRLPRPRPRPNYWPRP | -0.234 |
| RRIRPRPPRLPRPRPRPPASPRP | 0.559 |
| RRIRPRPPRLPRPRPRPPDYPRP | -0.107 |
| RRIRPRPPRLPRPRPRPPFSPRP | 0.0978 |
| RRIRPRPPRLPRPRPRPPGSPRP | 0.0805 |
| RRIRPRPPRLPRPRPRPPHEPRP | -0.0736 |
| RRIRPRPPRLPRPRPRPPIPPRP | 0.15 |
| RRIRPRPPRLPRPRPRPPKAPRP | -0.0122 |

| Sequence | shrunken log2 fold change |
| --- | --- |
| RRIRPRPPRLPRPRPRPPLEPRP | 0.179 |
| RRIRPRPPRLPRPRPRPPPFPRP | 0.277 |
| RRIRPRPPRLPRPRPRPPPMPRP | 0.52 |
| RRIRPRPPRLPRPRPRPPQEPRP | 0.727 |
| RRIRPRPPRLPRPRPRPPQKPRP | 0.19 |
| RRIRPRPPRLPRPRPRPPQYPRP | 0.189 |
| RRIRPRPPRLPRPRPRPPRIPRP | 0.233 |
| RRIRPRPPRLPRPRPRPPRKPRP | 0.79 |
| RRIRPRPPRLPRPRPRPPSDPRP | 0.128 |
| RRIRPRPPRLPRPRPRPPSFPRP | 0.262 |
| RRIRPRPPRLPRPRPRPPVDPRP | 0.52 |
| RRIRPRPPRLPRPRPRPPWGPRP | 0.34 |
| RRIRPRPPRLPRPRPRPPWMPRP | 0.407 |
| RRIRPRPPRLPRPRPRPPYCPRP | -0.12 |
| RRIRPRPPRLPRPRPRPPYWPRP | -0.123 |
| RRIRPRPPRLPRPRPRPQCSPRP | -0.0986 |
| RRIRPRPPRLPRPRPRPQDCPRP | 0.104 |
| RRIRPRPPRLPRPRPRPQECPRP | 0.0456 |
| RRIRPRPPRLPRPRPRPQGEPRP | 0.208 |
| RRIRPRPPRLPRPRPRPQHFPRP | -0.297 |
| RRIRPRPPRLPRPRPRPQKQPRP | -0.294 |
| RRIRPRPPRLPRPRPRPQLHPRP | -0.0604 |
| RRIRPRPPRLPRPRPRPQMDPRP | -0.395 |
| RRIRPRPPRLPRPRPRPQPPPRP | 0.509 |
| RRIRPRPPRLPRPRPRPQSNPRP | -0.285 |

| Sequence | shrunken log2 fold change |
| --- | --- |
| RRIRPRPPRLPRPRPRPQSRPRP | 0.161 |
| RRIRPRPPRLPRPRPRPQVPPRP | 0.0319 |
| RRIRPRPPRLPRPRPRPQWFPRP | -0.0872 |
| RRIRPRPPRLPRPRPRPQWMPRP | 0.00643 |
| RRIRPRPPRLPRPRPRPRAHPRP | 0.345 |
| RRIRPRPPRLPRPRPRPRCRPRP | 0.217 |
| RRIRPRPPRLPRPRPRPREDPRP | 0.134 |
| RRIRPRPPRLPRPRPRPRGVPRP | 0.347 |
| RRIRPRPPRLPRPRPRPRHEPRP | 0.0886 |
| RRIRPRPPRLPRPRPRPRLKPRP | 0.344 |
| RRIRPRPPRLPRPRPRPRMGPRP | 0.38 |
| RRIRPRPPRLPRPRPRPRMKPRP | -0.285 |
| RRIRPRPPRLPRPRPRPRMSPRP | 0.232 |
| RRIRPRPPRLPRPRPRPRQAPRP | 0.0176 |
| RRIRPRPPRLPRPRPRPRTIPRP | 0.206 |
| RRIRPRPPRLPRPRPRPRTTPRP | 0.332 |
| RRIRPRPPRLPRPRPRPRVHPRP | -0.0821 |
| RRIRPRPPRLPRPRPRPRVYPRP | -0.311 |
| RRIRPRPPRLPRPRPRPRWCPRP | 0.171 |
| RRIRPRPPRLPRPRPRPRWGPRP | 0.509 |
| RRIRPRPPRLPRPRPRPRYKPRP | -0.269 |
| RRIRPRPPRLPRPRPRPSAMPRP | 0.0584 |
| RRIRPRPPRLPRPRPRPSCFPRP | -0.193 |
| RRIRPRPPRLPRPRPRPSCSPRP | -0.538 |
| RRIRPRPPRLPRPRPRPSDFPRP | -0.42 |
